Results reported in the supplement of paper PMC9170038.

System: MS2 coat protein
Assay: apparent KD of MS2 coat protein; designed switch direction (-1 OFF switch, 1 ON switch): -1; higher = weaker reporter binding
In short: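 Stalled E. coli RNA polymerase transcribed designed RNA switches on Illumina chips, which were then titrated with SNAP-549-labelled MS2 coat protein, doubling from 0.7 or 1.5 nM to 3 µM. Steps lasted from 0.8–1.5 h at the lowest concentration to 10–20 min at the highest. The apparent KD is each design's median over clusters of curve-fitted normalised fluorescence.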

[1] = Eterna round: R95, input ligand: microRNA oligo, concentration not stated
[2] = input ligand: microRNA oligo, concentration not stated
[3] = Eterna round: R95, input ligand: FMN 200 uM
[4] = Eterna round: R95, input ligand: none

| Sequence | apparent KD of MS2 coat protein [1] | apparent KD of MS2 coat protein (input ligand: FMN 200 uM) | apparent KD of MS2 coat protein (input ligand: none) | also measured |
| --- | --- | --- | --- | --- |
| CCGCAAAUGCAGGAUAUCGUAUCGGAUACGAUACGAGAAGGGCAUACAUGAGGAUCACCCAUGUGUCCUAGCGG [Fiskers Ex 6 - 43] (puzzle: Exclusion 6) | 16 nM | – | – | – |
| UCGACUACAGUAGGAUAUGUAGGAUAUGUGGUUGAGGAUCACCCAACCACUUCAACGACAGAAGGACAGAAGGACUGACAACGU [pwkr exNG2 2xFMN 1xF5.3] (Eterna round: R96, puzzle: Exclusion NG 2) | – | 16.8 nM | 16.5 nM | apparent KD of MS2 coat protein [2]: 14.8 nM |
| UGUUGUCGCGCAGGAUAUGAGGAUCACCCAUAGAAGGAUAUCGAAAGAGAAGGUCUGAGGAUUACCCAGAAGGGCGGGACAACU [pwkr exNG2 2xF5 2xFMN.13] (Eterna round: R96, puzzle: Exclusion NG 2) | – | 807 nM | 137 nM | apparent KD of MS2 coat protein [2]: 133 nM |
| AACUCACAUGAGGAUCACCCAUGUGAGGAUAUGUGAGUGUGUAUGUUAUUAUAUAUUUAUAGAAGGCGCGUGAU [JR_Exc1_Sub029] (Eterna round: R97, puzzle: Exclusion 1) | – | 24.5 nM | 23.1 nM | – |
| AGUAAGCUAGGAUAUGCUUUGGGAAAGCAUUCCUUCGAUAAACUUGAGGAUCACCCAAGUAGAAGGAGCUUACU [jl-ex2.4.51 ViennaUCT mod] (Eterna round: R97, puzzle: Exclusion 2) | – | 22.9 nM | 12 nM | – |
| AGUAGAUCUACGCUUGCGUGGAUCUGCAAUGCAAGUGUUACAUGAGGAUCACCCAUGUCCUCAUUUGCUCGUCUUAU [JL turnoff v2 99.04] (puzzle: Sensor v3, turn-off variant 2) | 108 nM | – | – | apparent KD of MS2 coat protein [3]: 42.2 nM; apparent KD of MS2 coat protein [4]: 40.9 nM |
| GCAUCUCAUGUCAGGAUAUGCUGUACCUUGGUACAGCAGAAGGGACAUGAGGAUCACCCAUGUGCCUAAGAUGC [JL-BMX4-4.12] (Eterna round: R97, puzzle: Brourd's mod of Exclusion 4) | – | 1270 nM | 254 nM | – |
| UGUGUGUGAGGAUAUACAAUUGUGUGUGGAAACGCGCGCGUACAUGAGGAUCACCCAUGUAGAAGGCGCGCGCG [-30.7, -27.4 kcal A 24%, 6bis,6bis] (Eterna round: R97, puzzle: Exclusion 2) | – | 18.4 nM | 17.9 nM | – |
| AUGUUAUUGGAAGGAUAUAGUUUACUAUUCUAACAUGAGGAUCACCCAUGUAACCUUAUGUGUAUCUAGAAGGUCCAUAACUUA (Eterna round: R96, puzzle: Exclusion NG 2) | – | – | – | apparent KD of MS2 coat protein [2]: 46.4 nM |
| GAAAAGCGAGGAUAUACAUGAGGAUCACCCAUGUAGCAAAAGCGUGCGGCGGUCGGAGGUAGAAGGCGCACAAC [Zamara] (puzzle: Exclusion 3) | 51.8 nM | – | – | apparent KD of MS2 coat protein [3]: 81.2 nM; apparent KD of MS2 coat protein [4]: 100 nM |
| CAGAGCAGACGGAGAUCCAACAUGAGGAUCACCCAUGUCUCAAAAGCUUUUUGCUUGUCUUAUCCUCCUCUGUUCAC [Esquitian 2] (Eterna round: R97, puzzle: Sensor, turn-off variant 1) | – | 18.3 nM | 17.4 nM | – |
| AAUAACAAGCAAGAUCCUAACAUGAGGAUCACCCAUGUGCUCGUCUUGUAAAGUACUAUCACGAAAGUGAUAGUACA [Sensor 3, v1 - 48] (puzzle: Sensor v3, turn-off variant 1) | 723 nM | – | – | apparent KD of MS2 coat protein [3]: 20 nM; apparent KD of MS2 coat protein [4]: 22.1 nM |
| UACAGUCGAGGAUAUACGAUCGUGCUUCGGCACGUAAGAUCACAUGAGGAUCACCCAUGUAGAAGGCGACUGUA [Mod 9 - Jieux - Exclusion 2] (Eterna round: R97, puzzle: Exclusion 2) | – | 226 nM | 35.1 nM | – |
| CUGUGUCCGCAGGAUAUGUCAUCCUGAAGGAUCACAGAAGGGCGGACAUGAGGAUCACCCAUGUGAGCCAAAGA [EX6 A.11] (Eterna round: R97, puzzle: Exclusion 6) | – | 16.7 nM | 17.9 nM | – |
| CGAGCUGCUGUGAGGAUAUACCUAUGGAUACAUAGGUAGAAGGCACAUGAGGAUCACCCAUGUCCUGCAGCUCG [jl-bmx4-4.60 Eli mod] (Eterna round: R97, puzzle: Brourd's mod of Exclusion 4) | – | 232 nM | 44 nM | – |
| GAUAGAGAGCAGGAUAUCUUGGGUUAGUAUCGUAGAGAAGGGCUCACAUGAGGAUCACCCAUGUGGUCCAAGAU [JL Dibiri mod 02] (puzzle: Exclusion 6) | 15.1 nM | – | – | apparent KD of MS2 coat protein [3]: 36.5 nM; apparent KD of MS2 coat protein [4]: 13.3 nM |
| UAAAAGUCAGGAUAUGCGAGAGAUUGAAGUGUGGCAAGGUAGCAGAAGGGACAUGAGGAUCACCCAUGUGUGGC [JR_Exclu4_Sub096] (puzzle: Exclusion 4) | 49 nM | – | – | – |
| ACAAGCUUUUAGAUUUUCAACAUGAGGAUCACCCAUGUUCGUCUUGGGCUAGUGCGAGUGCGGUGUACUCGUAUUAG [JL TOV1 3.83 sellena mod] (Eterna round: R97, puzzle: Sensor, turn-off variant 1) | – | 23.2 nM | 23.4 nM | – |

| Sequence | apparent KD of MS2 coat protein [1] | apparent KD of MS2 coat protein (input ligand: FMN 200 uM) | apparent KD of MS2 coat protein (input ligand: none) | also measured |
| --- | --- | --- | --- | --- |
| UUCCUGUCAGGAUAUGACUAGAUGCACGAAAGUGUGUUUACUUAGAAGGGACAUGAGGAUCACCCAUGUAGUCC [Bring Us a Shrubbery-17] (puzzle: Exclusion 4) | 31.3 nM | – | – | – |
| UCGACUAGAGGAUAUACAUGAGGAUCACCCAUGUUGGUAUCACGAAUUCAACCAACUCGUAGAAGGCUGACGAC [Eternabot (L1) Solution 98] (Eterna round: R97, puzzle: Exclusion 3) | – | 24.2 nM | 24.9 nM | – |
| UGAGUGGUGCGAGGAUAUACAUGAGGAUCACCCAUGUAAACGUGUGAGGCAAAGCCUCACACGAUGUAGAAGGCGCACUACUCU [Mat - Exclusion NG 2 - Mod of JL - D14] (Eterna round: R96, puzzle: Exclusion NG 2) | – | 24.7 nM | 19.5 nM | apparent KD of MS2 coat protein [2]: 12.4 nM |
| CCUCCCUGAGGAUAUCCACCCUCAUACAUGAGGAUCACCCAUGUUCAUCCGUGGGUACCCGGAGAAGGCAGAUCUC [Megrez-b] (Eterna round: R97, puzzle: Exclusion 5) | – | 81 nM | 85.9 nM | – |
| CAAACCAGAGGAUAUGCGCAUAGAUCAGACUUUGUUUCUUAACAUGAGGAUCACCCAUGUAGAAGGCUGUAAAC [Ex2 #74] (Eterna round: R97, puzzle: Exclusion 2) | – | 12.3 nM | 13.3 nM | – |
| UUAAUUACGGUGCUUUAACCUCACAUGAGGAUCACCCAUGUGCAGGAUAUCAGCUCGAUUAGAGCUGAGAAGGGCACUGCACCG [ExNG3/11-A1] (Eterna round: R96, puzzle: Exclusion NG 3) | – | 15.1 nM | 12.5 nM | apparent KD of MS2 coat protein [2]: 9.95 nM |
| UUCUUACAUGAGGAUCACCCAUGUCAGGAUAUCUCCGCACUGCGCUUGCGCAGUGCAUAGAGAAGGGACAGGCU [JL ViennaUCT Aner mod 4] (puzzle: Exclusion 1) | 45.7 nM | – | – | – |
| CUAUGAGCUGAGGAUAUCUGCAGGUUGUGCCUGGGAGAAGGCAGCACAUGAGGAUCACCCAUGUGACCGAAAUA [Mod Ex6 A.17 by Nando] (Eterna round: R97, puzzle: Exclusion 6) | – | 195 nM | 50.8 nM | – |
| AUGGGUACUUUCGGAGCGACAUGAGGAUCACCCAUGUAUAUUGAGGAUAUCCACUACUAAGGACGGGAGAAGGCAGUGUACUGU [Ex NG3 #81] (Eterna round: R96, puzzle: Exclusion NG 3) | – | 53.3 nM | 46.4 nM | apparent KD of MS2 coat protein [2]: 29.2 nM |
| UCUCUGCGAGGAUAUACGUGCGCGCGCGCGCGCGCGCGCGUACAUGAGGAUCACCCAUGUAGAAGGCGCUCUGC [Apr-15 SS2-3] (puzzle: Exclusion 2) | 19.4 nM | – | – | – |
| CAGAGCAGAGGAUAUACAUGAGGAUCACCCAUGUGAUCAUGCUACGGGACGUUACAUUGUAGAAGGCUGCUUUC [Eternabot (L2) Solution 58] (Eterna round: R97, puzzle: Exclusion 3) | – | 283 nM | 31.1 nM | – |
| CCCUCACAUGAGGAUCACCCAUGUAAGGAUAUCUUCGAUUUGACGUGGUUGGAUGCGAAGAGAAGGUACAAGGC [jl-ex1-4.72 ViennaUCT mod] (Eterna round: R97, puzzle: Exclusion 1) | – | 35.9 nM | 20.6 nM | – |
| GCCAGAGCAGGAUAUUCAAUAUAUCACAUGAGGAUCACCCAUGUCCAGCGAAAGCUGGAGGGAGAAGGGCUCUGGC [Fiskers Ex 5 - 16] (puzzle: Exclusion 5) | 416 nM | – | – | apparent KD of MS2 coat protein [3]: 99.5 nM; apparent KD of MS2 coat protein [4]: 390 nM |
| ACAUUCAGAGGAUAUGCGCAUAGAUAAGACUUUUUUUUUUAACAUGAGGAUCACCCAUGUAGAAGGCUGUAACA [Ex2 #49] (Eterna round: R97, puzzle: Exclusion 2) | – | 21.4 nM | 21.7 nM | – |
| UUAGAAAUGUUAGGAUAUUAAUAUUUUUUUAGUAUGAUCUACAUGAGGAUCACCCAUGUUAAAAUUAAGAAGGAACAUUUUAUU [JR_ExcNG2_Sub098] (Eterna round: R96, puzzle: Exclusion NG 2) | – | – | – | apparent KD of MS2 coat protein [2]: 59.7 nM |
| CUGAGUAUAGGAUAUACAUGAGGAUCACCCAUGUAGAAACAAGGGUCUUACAACUAAAGUAGAAGGAUAUUUGG [ExFusion 7 - Jieux - Exclusion 3] (Eterna round: R97, puzzle: Exclusion 3) | – | 112 nM | 48.2 nM | – |
| CACGUGUAAGGAUAUGACAAUGGUAUCUUCGGAUACCAUUGUCAGAAGGUACAUGAGGAUCACCCAUGUAACAC [Ex4-3: 15] (puzzle: Exclusion 4) | 17.2 nM | – | – | – |
